Molecular target: T1, human GPNMB (transmembrane glycoprotein NMB) (human, UniProt Q14956 23-572)
T1 construct: Endogenous GPNMB in human FFPE tissues and cells (IHC), A375 cell lysate (Western blot) and A375 cells (flow cytometry)
T1 sequence: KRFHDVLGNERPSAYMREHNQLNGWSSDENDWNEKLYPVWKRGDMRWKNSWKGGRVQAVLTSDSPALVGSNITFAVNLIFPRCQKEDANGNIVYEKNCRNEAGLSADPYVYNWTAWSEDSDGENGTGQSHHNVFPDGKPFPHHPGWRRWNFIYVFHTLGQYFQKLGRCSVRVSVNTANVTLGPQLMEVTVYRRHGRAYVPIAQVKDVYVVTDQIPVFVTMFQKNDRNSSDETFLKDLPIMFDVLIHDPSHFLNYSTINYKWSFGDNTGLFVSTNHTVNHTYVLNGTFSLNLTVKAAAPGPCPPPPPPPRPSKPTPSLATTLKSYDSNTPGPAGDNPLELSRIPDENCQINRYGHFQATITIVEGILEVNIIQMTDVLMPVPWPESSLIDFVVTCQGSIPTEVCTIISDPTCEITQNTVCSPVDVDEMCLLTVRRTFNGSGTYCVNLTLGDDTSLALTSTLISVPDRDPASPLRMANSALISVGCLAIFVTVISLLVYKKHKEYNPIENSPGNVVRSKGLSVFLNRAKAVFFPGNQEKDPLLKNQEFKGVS
Assay: IHC screening of recombinantly expressed clones (after ELISA screening on the GPNMB antigen)

- binding result: binds
B1: rabbit anti-human GPNMB monoclonal antibody (SP299) (antibody, V domains shown)
VH: QSLEESGGGLVKPGGTLTLICTVSGIDLSTYGVIWVRQAPREGLEWIGFITRSGTTDYAAWANGRFTISKTSTTVDLKIASLTAADTATYFCARGGYRFNLWGHGTLVTVSS
VL: DPVMTQTPASVSEPVGGTVTIKCQASQSIYSYLAWYQQKPGQPPKLLIYKASSLESGVPSRLSGSGSGTEFTLTISDLECADAATYYCQGGYISTTVSFGYGFGGGTEVVVK
notes: also called anti-GPNMB antibody SP299; Anti-GPNMB monoclonal antibody (SP299)

From patent US20180208655A1 (VENTANA MEDICAL SYSTEMS, published 2018)
